Data on three substances can be found in article PMC2841437.

The target in test [1] is activated GST fusion protein of full-length human Akt1 (T308D/S473D) (human) (UniProt P31749). The experiment in a line: pull-down.
Test [2] has the same target. The experiment in a line: other fluorescence titration.

Sequence of UniProt P31749 (P31749 whole entry T308D/S473D, the tested form may be a part): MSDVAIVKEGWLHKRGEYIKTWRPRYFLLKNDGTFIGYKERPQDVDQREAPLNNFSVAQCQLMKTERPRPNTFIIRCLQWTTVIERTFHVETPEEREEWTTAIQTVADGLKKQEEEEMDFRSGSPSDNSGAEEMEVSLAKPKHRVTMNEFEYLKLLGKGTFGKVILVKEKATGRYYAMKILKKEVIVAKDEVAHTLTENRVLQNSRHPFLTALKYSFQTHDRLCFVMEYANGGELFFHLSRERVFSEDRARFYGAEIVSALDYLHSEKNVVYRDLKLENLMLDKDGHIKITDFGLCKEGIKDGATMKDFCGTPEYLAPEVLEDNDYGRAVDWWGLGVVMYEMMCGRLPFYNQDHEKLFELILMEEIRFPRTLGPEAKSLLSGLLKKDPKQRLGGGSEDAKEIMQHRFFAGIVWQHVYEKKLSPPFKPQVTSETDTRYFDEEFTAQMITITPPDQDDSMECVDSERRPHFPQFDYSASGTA

Regarding GSK-3α/β fusion protein, in test [1], the percentage of recovery came to 31.7%.

As usually defined, the Kd is the constant that tells how readily two partners part at equilibrium. Read a low Kd as tighter binding. The substance “T7-tagged CBP CH3 fragment with T1872A (from UniProt P45481 1756-1878) (domain or fragment)” had a Kd in test [2] of 1.2 nM.

“T7-tagged CBP CH3 fragment with T1872D (from UniProt P45481 1756-1878) (domain or fragment)” showed a Kd in test [2] of 4.07 nM.
